Test results published in US20090149339A1 (published 2009).
Ends that are not written are not given here. * marks the point of attachment. Biotin = O=C1N[C@H]2[C@H](CS[C@H]2CCCCC(=O)*)N1

Assays:
[1] = molecular target: T1, GST-TAX40 PDZ domain fusion protein (human tax interaction protein 40 AA35-137; PDZ domain 1 of 1) (human, UniProt P08515 1-218 = GST); assay: A/G assays
T1 construct: also called TX 40

[2] = molecular target: GST-prIL16 PDZ domain fusion protein (putative interleukin 16 precursor AA170-383; PDZ domains 1-2 of 2) (UniProt P08515 1-218 = GST); assay: A/G assays
[3] = molecular target: T2, GST-SYN1a PDZ domain fusion protein (alpha1-syntrophin AA96-189; PDZ domain 1 of 1) (UniProt P08515 1-218 = GST); assay: A/G assays
T2 construct: also called SYN 1 alpha; SYNTR 1 alpha

[4] = molecular target: T3, GST-CBP PDZ domain fusion protein (Cytohesin binding protein HE AA85-175; PDZ domain 1 of 1) (UniProt P08515 1-218 = GST); assay: A/G assays
T3 construct: also called Prot

[5] = molecular target: T4, GST-TAX43 PDZ domain fusion protein (human tax interaction protein 43 AA15-85; PDZ domain 1 of 1) (human, UniProt P08515 1-218 = GST); assay: A/G assays
T4 construct: also called TX 43

[6] = molecular target: GST-PSD95 PDZ domain fusion protein (human post-synaptic density protein 95 AA387-724; PDZ domains 1-3 of 3) (human, UniProt P08515 1-218 = GST); assay: A/G assays
[7] = molecular target: T5, GST-MPP2 PDZ domain fusion protein (maguk p55 subfamily member 2 (DLG2) AA185-273; PDZ domain 1 of 1) (UniProt P08515 1-218 = GST); assay: A/G assays
T5 construct: also called MMP2

[8] = molecular target: T6, GST-KIAA0316 PDZ domain fusion protein (KIAA0316 AA197-284; PDZ domain 1 of 1) (UniProt P08515 1-218 = GST); assay: A/G assays
T6 construct: also called K316

[9] = molecular target: GST-LIM PDZ domain fusion protein (Human LIM protein AA29-112; PDZ domain 1 of 1) (human, UniProt P08515 1-218 = GST); assay: A/G assays
[10] = molecular target: GST-MINT3 PDZ domain fusion protein (human MINT3 AA11-52; PDZ domain 1 of 1) (human, UniProt P08515 1-218 = GST); assay: A/G assays
[11] = molecular target: GST-LIMK2 PDZ domain fusion protein (human LIM domain kinase 2 AA185-275; PDZ domain 1 of 1) (human, UniProt P08515 1-218 = GST); assay: A/G assays
[12] = molecular target: T7, GST-TAX33 PDZ domain fusion protein (tax interaction protein 33 AA73-162; PDZ domain 1 of 1) (UniProt P08515 1-218 = GST); assay: A/G assays
T7 construct: also called TX33

[13] = molecular target: T8, GST-RGS12 PDZ domain fusion protein (human regulator of G-protein signalling 12 AA35-103; PDZ domain 1 of 1) (human, UniProt P08515 1-218 = GST); assay: A/G assays
T8 construct: also called RSG12

[14] = molecular target: GST-NOS1 PDZ domain fusion protein (human neuronal nitric oxide synthase; PDZ domain 1 of 1) (human, UniProt P08515 1-218 = GST); assay: A/G assays
[15] = molecular target: T9, GST-TAX2 PDZ domain fusion protein (human tax interaction protein 2 AA54-140; PDZ domain 1 of 1) (human, UniProt P08515 1-218 = GST); assay: A/G assays
T9 construct: also called TX 2

[16] = molecular target: GST-DVL1 PDZ domain fusion protein (human dishevelled segment polarity protein homolog AA248-340); PDZ domain … (human, UniProt P08515 1-218 = GST); assay: A/G assays
[17] = molecular target: T10, GST-CASK PDZ domain fusion protein (CASK AA495-584; PDZ domain 1 of 1) (mouse, UniProt P08515 1-218 = GST); assay: A/G assays
T10 construct: also called mCASK

[18] = molecular target: T11, GST-PTN-4 PDZ domain fusion protein (protein-tyrosine phosphatase meg1 AA774-862; PDZ domain 1 of 1) (UniProt P08515 1-218 = GST); assay: A/G assays
[19] = molecular target: T12, GST-KIAA0559 PDZ domain fusion protein (KIAA0559 AA766-870; PDZ1 of 1) (UniProt P08515 1-218 = GST); assay: A/G assays
T12 construct: also called K559

[20] = molecular target: GST-AF6 PDZ domain fusion protein (af-6 protein AA985-1077; PDZ domain 1 of 1) (UniProt P08515 1-218 = GST); assay: A/G assays
[21] = molecular target: T13, GST-KIAA0303 PDZ domain fusion protein (KIAA0303 AA652-742; PDZ domain 1 of 1) (UniProt P08515 1-218 = GST); assay: A assay
T13 construct: also called K303

[22] = molecular target: T14, GST-NeDLG PDZ domain fusion protein (presynaptic protein sao102, neuroendocrine-dlg; PDZ domains 1-2 of 3) (UniProt P08515 1-218 = GST); assay: A assay
T14 construct: also called NeDLG1

[23] = molecular target: T15, GST-41.8 kD PDZ domain fusion protein (hypothetical 41.8 kD protein AA4-85; PDZ domain 1 of 1) (UniProt P08515 1-218 = GST); assay: A assay
T15 construct: also called hypoth

[24] = molecular target: T16, GST-MPP1 PDZ domain fusion protein (55 Kd erythrocyte membrane protein AA101-186; PDZ domain 1 of 1) (UniProt P08515 1-218 = GST); assay: A assay
[25] = molecular target: T17, GST-TIAM1 PDZ domain fusion protein (T-lymphoma invasion and metastasis inducing protein 1 AA1001-1088); PDZ 1 … (UniProt P08515 1-218 = GST); assay: A assay
[26] = molecular target: T8, GST-RGS12 PDZ domain fusion protein …; assay: G assay
[27] = molecular target: T11, GST-PTN-4 PDZ domain fusion protein …; assay: G assay
[28] = molecular target: T13, GST-KIAA0303 PDZ domain fusion protein …; assay: A/G assays
[29] = molecular target: T14, GST-NeDLG PDZ domain fusion protein …; assay: A/G assays
[30] = molecular target: T15, GST-41.8 kD PDZ domain fusion protein …; assay: A/G assays
[31] = molecular target: T16, GST-MPP1 PDZ domain fusion protein (55 …); assay: A/G assays
[32] = molecular target: T17, GST-TIAM1 PDZ domain fusion protein …; assay: A/G assays
[33] = molecular target: T15, GST-41.8 kD PDZ domain fusion protein …; assay: A/G assays; remark: listed apart in the source

T3 sequence (P08515 1-218, tags or fused parts left off): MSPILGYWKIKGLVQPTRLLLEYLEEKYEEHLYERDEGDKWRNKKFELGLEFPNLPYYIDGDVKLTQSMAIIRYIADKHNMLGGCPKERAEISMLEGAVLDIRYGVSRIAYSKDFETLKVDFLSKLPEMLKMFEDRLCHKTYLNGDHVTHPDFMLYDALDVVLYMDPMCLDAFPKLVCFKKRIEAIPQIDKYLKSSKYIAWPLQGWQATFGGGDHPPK
T10 sequence (P08515 1-218, tags or fused parts left off): as above
Chain of GST-PSD95 PDZ domain fusion protein (human post-synaptic density protein 95 AA387-724; PDZ domains 1-3 of 3) (P08515 1-218, tags or fused parts left off): as above
T6 sequence (P08515 1-218, tags or fused parts left off): as above
T15 sequence (P08515 1-218, tags or fused parts left off): as above
T1 sequence (P08515 1-218, tags or fused parts left off): as above
T5 sequence (P08515 1-218, tags or fused parts left off): as above
Chain of GST-LIM PDZ domain fusion protein (Human LIM protein AA29-112; PDZ domain 1 of 1) (P08515 1-218, tags or fused parts left off): as above
T16 sequence (P08515 1-218, tags or fused parts left off): as above
T17 sequence (P08515 1-218, tags or fused parts left off): as above
Chain of GST-DVL1 PDZ domain fusion protein (human dishevelled segment polarity protein homolog AA248-340); PDZ domain … (P08515 1-218, tags or fused parts left off): as above
Chain of GST-prIL16 PDZ domain fusion protein (putative interleukin 16 precursor AA170-383; PDZ domains 1-2 of 2) (P08515 1-218, tags or fused parts left off): as above
T2 sequence (P08515 1-218, tags or fused parts left off): as above
T4 sequence (P08515 1-218, tags or fused parts left off): as above
T12 sequence (P08515 1-218, tags or fused parts left off): as above
Chain of GST-LIMK2 PDZ domain fusion protein (human LIM domain kinase 2 AA185-275; PDZ domain 1 of 1) (P08515 1-218, tags or fused parts left off): as above
Chain of GST-MINT3 PDZ domain fusion protein (human MINT3 AA11-52; PDZ domain 1 of 1) (P08515 1-218, tags or fused parts left off): as above
T13 sequence (P08515 1-218, tags or fused parts left off): as above
T8 sequence (P08515 1-218, tags or fused parts left off): as above
T7 sequence (P08515 1-218, tags or fused parts left off): as above
T9 sequence (P08515 1-218, tags or fused parts left off): as above

Biotin-ARKANMKGSYSLVEAQKSKV (also called CD106) [VCAM1 C-terminal PL peptide AA17L, biotinylated]
binding result [1]: no binding | binding result [2]: no binding | binding result [3]: no binding | binding result [4]: no binding | binding result [5]: no binding | binding result [6]: no binding | binding result [7]: no binding | binding result [8]: no binding | binding result [9]: no binding | binding result [10]: no binding | binding result [11]: no binding | binding result [12]: no binding | binding result [13]: no binding | binding result [14]: no binding | binding result [15]: no binding | binding result [16]: no binding | binding result [17]: no binding | binding result [18]: no binding | binding result [19]: no binding | binding result [20]: no binding | binding result [21]: binds | binding result [22]: binds | binding result [23]: binds | binding result [24]: binds | binding result [25]: binds

Biotin-EVICYIEKPGVETLEDSVF [CDW125 (IL5R) C-terminal PL peptide AA28L, biotinylated]
binding result [26]: binds | binding result [27]: binds | binding result [1]: no binding | binding result [28]: no binding | binding result [2]: no binding | binding result [3]: no binding | binding result [4]: no binding | binding result [5]: no binding | binding result [6]: no binding | binding result [7]: no binding | binding result [8]: no binding | binding result [29]: no binding | binding result [9]: no binding | binding result [10]: no binding | binding result [11]: no binding | binding result [12]: no binding | binding result [30]: no binding | binding result [31]: no binding | binding result [14]: no binding | binding result [15]: no binding | binding result [16]: no binding | binding result [32]: no binding | binding result [17]: no binding | binding result [19]: no binding | binding result [20]: no binding

Biotin-ENLAPVTTFGKTNGYIA [CD148 (DEP-1) C-terminal PL peptide AA19L (ends GYIA), biotinylated]
binding result [1]: no binding | binding result [28]: no binding | binding result [2]: no binding | binding result [3]: no binding | binding result [4]: no binding | binding result [5]: no binding | binding result [6]: no binding | binding result [7]: no binding | binding result [8]: no binding | binding result [29]: no binding | binding result [9]: no binding | binding result [10]: no binding | binding result [11]: no binding | binding result [12]: no binding | binding result [31]: no binding | binding result [13]: no binding | binding result [14]: no binding | binding result [15]: no binding | binding result [16]: no binding | binding result [32]: no binding | binding result [17]: no binding | binding result [18]: no binding | binding result [19]: no binding | binding result [20]: no binding | binding result [33]: no binding
